Source: US20100081620

Target: T1, Dabcyl-LAQAHomoPheRSC(Fluorescein)-NH2
T1 chain: LAQAFRSC
Assay: enzyme kinetics, initial velocities fitted to a pure competitive two-site model

B1: Human ADAM10 protease containing the catalytic/disintegrin domains (protein)
chain: TTSAEKNTCQLYIQTDHLFFKYYGTREAVIAQISSHVKAIDTIYQTTDFSGIRNISFMVKRIRINTTADEKDPTNPFRFPNIGVEKFLELNSEQNHDDYCLAYVFTDRDFDDGVLGLAWVGAPSGSSGGICEKSKLYSDGKKKSLNTGIITVQNYGSHVPPKVSHITFAHEVGHNFGSPHDSGTECTPGESKNLGQKENGNYIMYARATSGDKLNNNKFSLCSIRNISQVLEKKRNNCFVESGQPICGNGMVEQGEECDCGYSDQCKDECCFDANQPEGRKCKLKPGKQCSPSQGPCCTAQCAFKSKSEKCRDDSDCAREGICNGFTALCPASDPKPNFTDCNRHTQVCINGQCAGSICEKYGLEECTCASSDGKDDKELCHVCCMKKMDPSTCASTGSVQWSRHFSGRTITLQPGSPCNDFRGYCDVFMRCRLVDADGPLARLKKAIFSPELYENIAE
  Ks (binding constant for substrate): the binding constant, Ks for substrate was 16±4.6 µM
